Test results as given in patent US20200040065A1 (INTEGRATED BIOTHERAPEUTICS, published 2020).

Biological target: BDBV GP ectodomain (Bundibugyo virus)

B1: monoclonal antibody CA45 (antibody, V domains shown)
VH: QVQLQEWGEGLVKPSETLSLTCAVYGGSISGYYHWNWIRLPPGKGLEWIGNIDNSASTNYNPSLKTRVTISKDTSKNQISLKVRSLTAADTAVYYCARDPGFTIFGVVITSWSGLDSWGQGAVVTVSS
VL: DIQMTQSPSSLSASVGDTVTITCRASQSISNNLAWYQQRPRRAPQLLIYAASNLASGVPSRFSGSGSGTDFTLTISSLQAEDFAAYYCQQHNTLPLTFGGGTKVEI
B1 showed an EC50 of 0.65 to 1.41 nM.
